According to US20200362047A1 (CRESCENDO BIOLOGICS, published 2020):
Substitutions are numbered along the chain they refer to.

T1: rhesus CD137Fc recombinant protein (Sino Biologicals cat no. 90847-K02H) (rhesus; human, UniProt H9Z8K9 24-186)
T1 construct: Bought protein; also called rhesus CD137-human IgG1 Fc tagged protein; not shown: human IgG1 Fc tag
T1 sequence: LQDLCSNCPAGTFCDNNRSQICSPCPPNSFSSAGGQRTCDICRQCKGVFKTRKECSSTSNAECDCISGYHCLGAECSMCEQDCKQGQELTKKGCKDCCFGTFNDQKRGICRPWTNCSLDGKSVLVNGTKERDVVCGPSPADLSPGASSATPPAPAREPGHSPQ

T2: mouse CD137Fc protein (Acro Biosystems 41B-M5258) (mouse, UniProt P20334 24-187)
T2 construct: Bought protein; also called mouse CD137 protein; not shown: Fc tag, detected with anti human-Fc
T2 sequence (looked up): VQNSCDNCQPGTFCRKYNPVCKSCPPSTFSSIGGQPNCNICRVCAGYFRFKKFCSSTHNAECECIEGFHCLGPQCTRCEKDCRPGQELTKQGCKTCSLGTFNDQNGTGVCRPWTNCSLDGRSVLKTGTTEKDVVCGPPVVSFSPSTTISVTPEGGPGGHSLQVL

T3: human GITR-Fc (R&D Systems cat no. 689-GR) (human, UniProt Q9Y5U5 26-161)
T3 construct: Bought protein; also called GITR (Glucocorticoid-induced TNFR-related); not shown: Fc tag
T3 sequence (looked up): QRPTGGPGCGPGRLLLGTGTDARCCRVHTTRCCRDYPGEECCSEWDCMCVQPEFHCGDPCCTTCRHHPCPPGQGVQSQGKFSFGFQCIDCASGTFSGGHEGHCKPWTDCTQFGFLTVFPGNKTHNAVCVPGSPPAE

B1: Humabody VH 1.52 (VHH)
VH: EVQLVESGGGLVQIGGSLRLSCAASGFTFSKYWMIWVRQAPEKGLEWVANINQDGSEKYYVDSVEGRFTISRDNANNSLFLQMNSLRAEDTAVYYCARGGDDYSISHFGMDVSGQGTRVTVSSHHHHHH
notes: human single VH domain
B2: Humabody VH 1.1 (VHH)
VH: EVQLVESGGGLVQPGGSLRLSCAASGFTFSSHWMTWFRQAPGKGLEWVAHIKEDGSEKYYEDSVEGRFTVSRDNAKNSVYLQMNSLRAEDTAVYYCARGGDGYSDSHFGVDVWGQGTTVTVSSHHHHHH
notes: human single VH domain; also called single domain antibody 1.1
B3: Humabody VH 1.18 (VHH)
VH: EVQLVESGGGLVQPGGSLRLSCAASGFTFSTHWMNWARQAPGKELEWVANINQDGSEKYYVDSVEGRFTISRDNANNSLYLQMNSLRAEDTAVYYCARGGVGYGDSHFGMDVWGLGTTVTVSSHHHHHH
notes: human single VH domain
B4: Humabody VH 2.1 (VHH)
VH: EVQLVESGGGLVKPGGSLRVSCAASGFTFSDYYMSWFRQAPGKGLEWVSYISGSGDIIDYADSVKGRFTISRDNAKNSLYLQMNNLRAEDTAVYHCAREDSRLTGTTDFDNWGQGTLVTVSSHHHHHH
notes: human single VH domain
B5: Humabody VH 2.8 (VHH)
VH: B4 VH with V20L, T28A, Y50H, D56T, I57T, N85S, L103M, T104P
notes: human single VH domain
B6: Humabody VH 2.14 (VHH)
VH: EVQLVESGGGLVKPGGSLRLSCAASGFTFSDYYMTWFRQAPGKGLEWISYISGSGDTIDYAESVKGRFTISRDNAKNSLYLQMNSLRAEDTAVYYCAREDIRMPGTTDFDHWGQGTLVTVSSHHHHHH
notes: human single VH domain
B7: Humabody VH 2.9 (VHH)
VH: B6 VH with Y95H, I101S, M103I, P104A, H111N, Q114P
notes: human single VH domain
B8: Humabody VH 1.78 (VHH)
VH: QVQLVESGGGLVQPGGSLRLSCAATGFTLSNYWMNWVRQAPGKGLEWVANINQDGSERYYVDSVKGRFTISRDNAKNSLYLQMSSLRAEDTAVYFCARGGEGYGVDHYGLDVSGQGTTVTVSSHHHHHH
notes: human single VH domain
B9: Humabody VH 1.11 (VHH)
VH: EVQLVESGGGLVQPGGSLRLSCEASGFTFSDYWMNWARQAPGKGLEWVANIKEDGSEKYYVDSVEGRFTISRDNAKNSTYLQMNSLRAEDTAVYYCARGGAGYSMSHYGMDVWGQGTTVTVSSHHHHHH
notes: human single VH domain

Target: T4, human CD137-human Fc chimeric protein (Acro Biosystems cat no. 41B-H5258) (human, UniProt Q07011 24-186)
T4 construct: Bought protein; The Octet Protein G and Biacore experiments name no catalogue number; also called human CD137Fc recombinant protein; human CD137-Fc recombinant protein; not shown: human IgG1 Fc tag
Assay: HTRF binding assay
Protocol: (§1) Binding to human CD137Fc recombinant protein (Acro Biosystems 41B-H5258), rhesus CD137Fc recombinant protein (Sino Biologicals cat no. 90847-K02H) and mouse CD137Fc protein (Acro Biosystems 41B-M5258) was measured using an HTRF Binding assay format. All reagents and serially diluted VH were prepared in assay buffer containing PBS, 0.1% BSA and 0.4M Potassium Fluoride. Samples or assay buffer (non-specific binding) were incubated with 0.5 nM human, rhesus or mouse CD137, 1 nM Anti human-Fc Cryptate PAb (Cisbio cat. no. 61HFCKLB) and 20 nM anti His-D2 (CisBio cat no 61HISDLA) in black 384-shallow well assay plates for a minimum of 3 hours at room temperature. Time-resolved fluorescent emission at 620 nm and 665 nm was measured following excitation at 337 nm on the BMG PHERAstar plate reader. The HTRF ratio were calculated ((665 nm emission/620 nm emission)*10000) and the data corrected for (non-specific binding) to give the specific binding signal. VH bound to human and rhesus CD137 but not to mouse CD137 protein.

EC50 [pM] | Binder
480 | B1
260 | B2
450 | B3
3700 | B4
3100 | B5
1200 | B6
1300 | B7
210 | B8
580 | B9

Target: T1, rhesus CD137Fc recombinant protein …
Assay: HTRF binding assay
Protocol: as §1

EC50 [pM] | Binder
450 | B1
1100 | B2
5100 | B3
1600 | B5
1300 | B6
1200 | B7
140 | B8
6800 | B9

Target: T2, mouse CD137Fc protein (Acro Biosystems …)
Assay: HTRF binding assay
Protocol: as §1

binding result | Binder
no binding | B1
no binding | B2
no binding | B3
no binding | B4
no binding | B5
no binding | B6
no binding | B7
no binding | B8
no binding | B9

Target: T3, human GITR-Fc (R&D Systems cat no. …)
Assay: ELISA, coated GITR-Fc
Protocol: Specificity of binding for CD137 over the tumour necrosis factor receptor family members OX40 and GITR (Glucocorticoid-induced TNFR-related) was determined using an ELISA assay. Nunc Maxisorp plates were coated with 1 ug/ml human CD137-Fc recombinant protein (Acro Biosystems 41B-H5258), human GITR-Fc (R&D Systems cat no. 689-GR) human OX40-Fc (R&D Systems cat no. 3388-OX) in sodium carbonate buffer overnight at 4° C. then washed twice with PBS. Non-specific protein interactions were blocked by incubation with 1% (w/v) skimmed milk powder (Marvel®) in PBS/0.1% Tween-20 for 1 hour at room temperature. Plates were washed twice with PBS then VH or antibody control (1 ug/ml) added for 1 hour at room temperature. Following three washes with PBS/0.1% Tween-20 a 1:1000 dilution of anti His-HRP (VH detection) or anti mouse-HRP (positive control mouse monoclonal antibody detection) was added in 1% Marvel/PBS/0.1% Tween-20. The detection antibodies were allowed to bind for 1 hour at room temperature then the plates were washed twice in PBS/0.1% Tween-20 and once in PBS. The ELISA was developed using TMB substrate and the reaction was stopped by the addition of 50 ul 0.5M H₂SO₄ solution. The absorbance at 450 nm was measured using the BMG Pherastar.

binding result | Binder
no binding (tested: 1 ug/ml) | B1
no binding (tested: 1 ug/ml) | B2
no binding (tested: 1 ug/ml) | B3
no binding (tested: 1 ug/ml) | B4
no binding (tested: 1 ug/ml) | B5
no binding (tested: 1 ug/ml) | B6
no binding (tested: 1 ug/ml) | B7
no binding (tested: 1 ug/ml) | B8
no binding (tested: 1 ug/ml) | B9

Target: T5, human CD137 expressed on the surface of CHO cells (human, UniProt Q07011 24-255)
T5 construct: Also used for the Jurkat reporter cells that express human CD137 (functional rows); also called CHO human CD137 cells; CHO huCD137
T5 sequence (Q07011 24-255 limits assumed): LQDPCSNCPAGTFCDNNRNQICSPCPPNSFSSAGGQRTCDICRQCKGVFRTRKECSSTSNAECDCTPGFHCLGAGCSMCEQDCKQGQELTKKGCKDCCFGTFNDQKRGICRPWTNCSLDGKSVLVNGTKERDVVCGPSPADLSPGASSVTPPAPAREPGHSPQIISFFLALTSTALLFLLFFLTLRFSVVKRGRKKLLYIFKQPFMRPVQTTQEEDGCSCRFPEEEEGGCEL
Assay: FMAT, CHO human CD137 cells
Protocol: Binding of His-tagged molecules to CHO human CD137, CHO parent, CHO human PSMA, DU145 PSMA and DU145 parent cells was assessed using Fluorescence Microvolume Assay Technology (FMAT). All reagents were prepared in FMAT assay buffer (pH 7.4) containing PBS, 0.1% Bovine Serum Albumin, 0.05% Sodium Azide. Serially diluted samples were transferred into 384 well black clear-bottomed assay plates (Costar cat. no. 3655) and incubated for a minimum of 2 hours at room temperature with 1.5 nM Anti-His (Millipore cat. no. 05-949), […] Goat Anti-Mouse Alexa Fluor-488 (Jackson ImmunoResearch cat. no. 115-545-071) and 2000 cells/well pre-stained with DRAQ5 (Thermo Scientific cat. no. 62251). Fluorescence emission was then measured on the TTP Mirrorball plate reader in the FL2 (502 nm-537 nm) and FL5 (677-800 nm) channels following excitation at 488 nm and 640 nm. Data was gated on FL5 perimeter and peak intensity and the FL2 median mean fluorescence intensity of the gated data used for determination of VH binding. Monovalent CD137 specific Humabody® VH, bispecific and trispecific molecules with a CD137 binding arm bound to CHO CD137 expressing cells. Monovalent PSMA specific Humabody® VH, bispecific and trispecific molecules with a PSMA binding arm bound to PSMA expressing cells.

EC50 [pM] | Binder
370 | B1
220 | B2
310 | B3
650 | B4
190 | B5
310 | B6
180 | B7
320 | B8
270 | B9
